Laboratory results published in the DeepSol protein solubility set.

assay: soluble on expression in E. coli; label from the status in PepcDB or PDB records

Row | Sequence | soluble on expression in E. coli
1 | MRFKVGIEFDESLELPFNYNKILQGFIYRNIMDKDLARFIHDRGFSYEKRKYKMFTFSRLQGKFSIDSKKKKIIYQSPVELVVSSCYEDFFIDLSLSLLRRDVEIAGHKAYVSKMDIIMEEPKSIQKIRMLSPVTAYSTLDDKRTVYFSPYNHDFKRIIKENLIKKYKAFYKDDSKDNVDFDIELVSDKYAKVISSYDGFIIEGWMGDFVLKGDQEVIKLAYDAGIGGKNSQGFGCFKLI | soluble
2 | MFDKHTHTLIAQRLDQAEKQREQIRAISLDYPEITIEDAYAVQREWVRLKIAESRTLKGHKIGLTSKAMQASSQISEPDYGALLDDMFFHDGSDIPTDRFIVPRIEVELAFVLAKPLRGPNCTLFDVYNATDYVIPALELIDARCHNIDPETQRPRKVFDTISDNAANAGVILGGRPIKPDELDLRWISALMYRNGVIEETGVAAGVLNHPANGVAWLANKLAPYDVQLETGQIILGGSFTLPVPARKGDTFHVDYGNMGSISCRFV | not soluble
3 | GPGSMTIDAVSPLFADISREYGAAFDAAIARNVADALAEDVGSGDQTGRLVPDGAPRRARVIVREDAVLCGVPWFDAVVRAVDPSIEVDWRHREGDRMSADSTVCELRGPARALLTAERNALNFLQLLSGVASATRQYVDRIADTRARILDTRKTLPGLRLAQKYAVRVGGGANQRLALYAGILIKENHIAAAGGVGEALDAAFALNAEVPVQIEVETLDQLRTALAHGARSVLLDNFTLDMMRDAVRVTEGRAVLEVSGGVNFDTVRAIAETGVDRISIGALTKDVRATDYSMRIVE | soluble
4 | MDEIDLRILKILQYNAKYSLDEIAREIRIPKSTLSYRIKKLEKDGVIKGYYAYINPASLNLDYIVITSVKAKYGKNYHVELGNKLAQIPGVWGVYFVLGDNDFIVMARYKTREEFMEKFLERVMSIPEVERASTQVVVKIIKESPNIVIF | soluble
5 | MGSDKIHHHHHHMGKFLVEREQMRYPVDVYTGKIQAYPEGKPSAIAKIQVDGELMLTELGLEGDEQAEKKVHGGPDRALCHYPREHYLYWAREFPEQAELFVAPAFGENLSTDGLTESNVYMGDIFRWGEALIQVSQPRSPCYKLNYHFDISDIAQLMQNTGKVGWLYSVIAPGKVSADAPLELVSRVSDVTVQEAAAIAWHMPFDDDQYHRLLSAAGLSKSWTRTMQKRRLSGKIEDFSRRLWGK | not soluble
6 | MIVPALIGSLPRPIGLAKKIELYSIGRLSEEKLEEAYRSYTRKAFENLKKARIKVITDGLYRWDDIFNPLIRFIDGVEVNGLFKFYENNFFYRSPVVRGELSLKENPLPGWISIAQEIKEDVYPEAELKAVLPGPVTLAYHSINEYYKDLNELTEAYATVLRELIKELDVKIMELQEPSLAAELSKATRESEEHVSKEVAKKVIEDLARVKKLWVVTYFGTPQVVPKDVILNIDLIEGNVPDEVKGEVGLGIVNARETKMERADRLKDKLRKYIRKFEKVYVTPNTLLDFLPERVAWKKLKLLGRLGGELEHHHHHH | not soluble
7 | MSLADKATIYIIDDDEIFQFITRKSFERLERNDNLFFFLNGEDALSSIKEAISGNKPSPDLIFLDINMPIMDGWDFLAELIKLEGEMKKTPQIYMVSSSIDDKDLIKSKTYNMIKDYIVKPIKDTHIKELLNNLNEGHHHHHH | soluble
8 | MAHHHHHHMLTDNQNCLEMERSDKRVTVALINTRSGERTAAEFVRKQMETHLGEENVFYLFPSGKPAIAEAKKFLERHNPAVVIVAGGDGTVSLALDITDGLRRTNMLSATSAYVAVLPMGTGNDLSRTLGFGGGYVKPLLNPEKKFKRLLDRLAHAKGIKMDRWSVQIQKKSTLTVASTGEDAHAGDSSRTYGVDDVHVVEKTMMNYFSIGFDATIVRQFNDFRNDHPTMCSQRSLNKLWYGCFGCGSMCNSVALPRKQMKLTVDDKCVAIPPGTKALLVTNVKTYAGGAVLWKDNRCRFAKPDVGDGLLEVTALYGVWHFAGVRMGIRKAMKVAQGNCIRIETPAYFAMQLDGEPVDELACGEEMIDVSITFFSRTLVMTCEGS | not soluble
9 | MTLKMGRVKWFNQSEGYGFISPHDGGSDVYVNKTAIANTKNKSLNEGQDVEFSTYRSIHGPSAADVIAF | not soluble
10 | MKRLKNELNALVNRGVDRHLRLAVTGLSRSGKTAFITAMVNQLLNIHAGARLPLLSAVREERLLGVKRIPQRDFGIPRFTYDEGLAQLYGDPPAWPTPTRGVSEIRLALRYKSNDSLLRHFKDTSTLYLEIVDYPGEWLLDLPMLAQDYLSWSRQMTGLLNGQRGEWSAKWRMMCEGLDPLAPADENRLADIAAAWTDYLHHCKQQGLHFIQPGRFVLPGDMAGAPALQFFPWPDVDAWGESKLAQADKHTNAGMLRERFNYYCEKVVKGFYKNHFLRFDRQIVLVDCLQPLNSGPQAFNDMRLALTQLMQSFHYGQRTLFRRLFSPVIDKLLFAATKADHVTIDQHANMVSLLQQLIQDAWQNAAFEGISMDCLGLASVQATTSGIIDVNGEKIPALRGNRLSDGAPLTVYPGEVPARLPGQAFWDKQGFQFEAFRPQVMDVDKPLPHIRLDAALEFLIGDKLR | not soluble
11 | MFRTAETSRDTLITTAYRLHRTRWRILEPYRRLKNALKKLQEDYLKSKEANALMRYVKLGQSVREVAMLEKQYWKLLNIPAQEGTEDANCYVVKIIELLEDTPTQLPPTRGIGALLQSTIGKPAEANVDTVLHDSLKARKSEDLVKECEGLYAQLYRLTKKYLGLRRLIKELHDKYEATRMFPIVPRYAMLKKMIKATLRAPEFADICHEQTE | not soluble
12 | MPLEAGLLEILACPACHAPLEERDAELICTGQDCGLAYPVRDGIPVLLVDEARRPEAAALEHHHHHH | not soluble
13 | MLAERGANITGLDISGPMLQQGREKAQATGVDDRVEFMRGDAARLPFPDDHFDTVFAMRFFHLADTPAAFLAEMRRVSKEQVFFDTFNRFSTRSIYNWALPMGSRLYSRWEIDRLLDGAGLELTDANHDWLLPYGFYRKIPNELAASFRSLDTALGGTPLGEKLASVSYWNTHVLEHHHHHH | not soluble
14 | SLETYGDSLATAVAERWNNHQAFIFGLATGAVVRLIAPLLQSKQSDPAVLVVDAMGQSVISLLSGHQGGGDRLAQIVAEQLQAKAILTGGANGLGQIAVDCLGIPFGWRKGKGDWTAVSSALAAQKLVGVTQTAGLTLWQNHLPPGHGFTFSGTKETTATLLITVQESNLEKLNKPMAPWHPRLLWIGVGCVRGTDLALLERALLEVLERENLSPLAIAGLASVHLKADEVGMQQFAQKYDLPFFTFPPEQLAAQAVPNPSEVVLQEVGTPSVAEAAALTAAQMYSQGGKLIAEKVIVKQHNQAVTVAIAKGE | not soluble
15 | MLNMPAEFEQFHWMVDMVQNVDMGLVVIDRDYNVQVWNGFMTHHSGLQSHEAIGRSIFDIFPEIPPEWFKLKTKPVYDLGCRSFITWRQRPYLFRCRNVRPVTQQAEFMYQNVTLNPMRTPTGKINSLFLSIQDATAEALMSQ | not soluble
16 | MGHHHHHHSHMETLSNASGTFAIRLLKILCQDNPSHNVFCSPVSISSALAMVLLGAKGNTATQMAQALSLNTEEDIHRAFQSLLTEVNKAGTQYLLRTANRLFGEKTCQFLSTFKESCLQFYHAELKELSFIRAAEESRKHINTWVSKKTEGKIEELLPGSSIDAETRLVLVNAIYFKGKWNEPFDETYTREMPFKINQEEQRPVQMMYQEATFKLAHVGEVRAQLLELPYARKELSLLVLLPDDGVELSTVEKSLTFEKLTAWTKPDCMKSTEVEVLLPKFKLQEDYDMESVLRHLGIVDAFQQGKADLSAMSAERDLCLSKFVHKSFVEVNEEGTEAAAASSCFVVAECCMESGPRFCADHPFLFFIRHNRANSILFCGRFSSP | not soluble
